Test [1] has as its target Shewanella oneidensis diheme cytochrome c peroxidase, maltose-binding protein fusion (Shewanella oneidensis). Kind of test: SEC. In general terms: In gel filtration, larger molecules generally elute earlier.
The target of test [2] is Shewanella oneidensis diheme cytochrome c peroxidase, tag-free (Shewanella oneidensis). Kind of test: SEC.

The term stoichiometry N denotes a count of units in the complex or per binding partner. “Shewanella oneidensis diheme cytochrome c peroxidase, maltose-binding protein fusion (enzyme)” displayed a stoichiometry N in test [1] of 2.
In test [2], “Shewanella oneidensis diheme cytochrome c peroxidase, tag-free (enzyme)” returned a stoichiometry N of 2.

The values above are taken from PMC3724350.
